Test results: PMC5792622 (Nature Communications, 2018)

Molecular target: the molecule itself
Assay: crystal structure

B1: hexon protein of HAdV5^HVR7 (human adenovirus type 5 with four mutations in hypervariable region 7 of the hexon) (natural protein)
chain: MATPSMMPQWSYMHISGQDASEYLSPGLVQFARATETYFSLNNKFRNPTVAPTHDVTTDRSQRLTLRFIPVDREDTAYSYKARFTLAVGDNRVLDMASTYFDIRGVLDRGPTFKPYSGTAYNALAPKGAPNPCEWDEAATALEINLEEEDDDNEDEVDEQAEQQKTHVFGQAPYSGINITKEGIQIGVEGQTPKYADKTFQPEPQIGESQWYETEINHAAGRVLKKTTPMKPCYGSYAKPTNENGGQGILVKQQNGKLESQVEMQFFSTTEATAGNGDNLTPKVVLYSEDVDIETPDTHISYMPTIKEGNSRELMGQQSMPNRPNYIAFRDNFIGLMYYNSTGNMGVLAGQASQLNAVVDLQDRNTELSYQLLLDSIGDRTRYFSMWNQAVDSYDPDVRIIENHGTEDELPNYCFPLGGVGNNSTYTKVKPKTGQENGWEKDATEFSDKNEIRVGNNFAMEINLNANLWRNFLYSNIALYLPDKLKYSPSNVKISDNPNTYDYMNKRVVAPGLVDCYINLGARWSLDYMDNVNPFNHHRNAGLRYRSMLLGNGRYVPFHIQVPQKFFAIKNLLLLPGSYTYEWNFRKDVNMVLQSSLGNDLRVDGASIKFDSICLYATFFPMAHNTASTLEAMLRNDTNDQSFNDYLSAANMLYPIPANATNVPISIPSRNWAAFRGWAFTRLKTKETPSLGSGYDPYYTYSGSIPYLDGTFYLNHTFKKVAITFDSSVSWPGNDRLLTPNEFEIKRSVDGEGYNVAQCNMTKDWFLVQMLANYNIGYQGFYIPESYKDRMYSFFRNFQPMSRQVVDDTKYKDYQQVGILHQHNNSGFVGYLAPTMREGQAYPANFPYPLIGKTAVDSITQKKFLCDRTLWRIPFSSNFMSMGALTDLGQNLLYANSAHALDMTFEVDPMDEPTLLYVLFEVFDVVRVHRPHRGVIETVYLRTPFSAGNATT
modifications: biotin (NHS-biotin), for the SPR only
notes: also called HAdV5^HVR7 hexon
  stoichiometry N: 3
